{"source": "paper PMC3325211", "about": "“Mutations in MITF and PAX3 Cause “Splashed White” and Other White Spotting Phenotypes in Horses”", "binders": {"B1": {"name": "M-box oligonucleotide (dsDNA)", "DNA 1": "GGAAAGTTAGTCATGTGCTTTTCAGAAGA", "DNA 2": "TCTTCTGAAAAGCACATGACTAACTTTCC"}}, "biological_target": "MITF wild-type (DNA-binding fragment) (UniProt Q95MD1 112-207)", "sequence (Q95MD1 entry or part of it)": "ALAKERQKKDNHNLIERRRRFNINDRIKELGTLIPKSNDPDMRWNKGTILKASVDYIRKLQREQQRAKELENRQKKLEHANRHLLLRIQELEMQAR", "assay": "EMSA; 5 mM MgCl2; 20 mM Tris, 50 mM NaCl, 5 mM MgCl2, 1 mM DTT, 33 ug/ml BSA, pH 7.4, on ice 30 min; 6% native PAGE in 0.5x TBE", "settings": "protein: recombinant; (Ni-NTA purified); chain copies: 2; label: radioactive label"}
{"binder": "B1", "values": [{"measurement": "binding result", "result": "binds"}]}
